Experimental data: patent publication US5082772A, “Process for preparing deacetylcephalosporin C” (priority 1988, dated 1992)

Key:
[1] = substrate: O=C(O)CCC(=O)C(=O)O; experiment: purified protein, by the assay type; details: 36° C.
[2] = substrate: CC1(C)S[C@@H]2[C@H](NC(=O)CCC[C@@H](N)C(=O)O)C(=O)N2[C@H]1C(=O)O; experiment: Kinetics of recombinant enzyme (Lineweaver-Burk); type: biochemical, Streptomyces clavuligerus; details: other: recombinant enzyme, pH 7.0, 50 mM HEPES buffer, 36° C.
Method: The kinetics of the native enzyme and recombinant enzyme were determined under the optimal reaction conditions for the enzyme, i.e., at pH 7.0 in 50 mM HEPES buffer at 36° C.

[3] = substrate: CC1(C)S[C@@H]2[C@H](NC(=O)CCC[C@@H](N)C(=O)O)C(=O)N2[C@H]1C(=O)O; experiment: Kinetics of native synthase, partially purified (Mono Q eluate); type: biochemical, Streptomyces clavuligerus; details: other: native partially purified enzyme, Tris-HCl buffer, 36° C., pH 7.0

B1: recombinantly produced DAOC synthase (Streptomyces clavuligerus) (protein)
chain: MDTTVPTFSLAELQQGLHQDEFRRCLRDKGLFYLTDCGLTDTELKSAKDLVIDFFEHGSEAEKRAVTSPVPTMRRGFTGLESESTAQITNTGSYSDYSMCYSMGTADNLFPSGDFERIWTQYFDRQYTASRAVAREVLRATGTEPDGGVEAFLDCEPLLRFRYFPQVPEHRSAEEQPLRMAPHYDLSMVTLIQQTPCANGFVSLQAEVGGAFTDLPYRPDAVLVFCGAIATLVTGGQVKAPRHHVAAPRRDQIAGSSRTSSVFFLRPNADFTFSVPLARECGFDVSLDGETATFQDWIGGNYVNIRRTSKA
notes: made in house; host or cells: Escherichia coli K12 JM109 (plasmid pOW382)
Km ([1]; other: recombinant enzyme, pH 7.0, 50 mM HEPES buffer): 18 µM | Km [2]: 29 µM

B2: native synthase (Streptomyces clavuligerus) (protein)
chain: B1 chain
notes: native synthase, evaluated with the partially purified enzyme; endogenous in cells; host or cells: Streptomyces clavuligerus cells, crude extract, three-step purification (Mono Q eluate)
Km ([1]; other: native partially purified enzyme, Tris-HCl buffer, pH 7.0): 22 µM | Km [3]: 35 µM
